Earlier results on one substance are cited in article PMC8141935.

This series deals with GABAA receptor α3 subunit intracellular loop (UniProt P34903).
Sequence of GABAA receptor α3 subunit intracellular loop (P34903 361-457): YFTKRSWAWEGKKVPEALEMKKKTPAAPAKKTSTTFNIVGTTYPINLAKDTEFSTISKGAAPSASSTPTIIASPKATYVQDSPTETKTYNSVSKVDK

Sequence of gephyrin (Q9NQX3 whole entry): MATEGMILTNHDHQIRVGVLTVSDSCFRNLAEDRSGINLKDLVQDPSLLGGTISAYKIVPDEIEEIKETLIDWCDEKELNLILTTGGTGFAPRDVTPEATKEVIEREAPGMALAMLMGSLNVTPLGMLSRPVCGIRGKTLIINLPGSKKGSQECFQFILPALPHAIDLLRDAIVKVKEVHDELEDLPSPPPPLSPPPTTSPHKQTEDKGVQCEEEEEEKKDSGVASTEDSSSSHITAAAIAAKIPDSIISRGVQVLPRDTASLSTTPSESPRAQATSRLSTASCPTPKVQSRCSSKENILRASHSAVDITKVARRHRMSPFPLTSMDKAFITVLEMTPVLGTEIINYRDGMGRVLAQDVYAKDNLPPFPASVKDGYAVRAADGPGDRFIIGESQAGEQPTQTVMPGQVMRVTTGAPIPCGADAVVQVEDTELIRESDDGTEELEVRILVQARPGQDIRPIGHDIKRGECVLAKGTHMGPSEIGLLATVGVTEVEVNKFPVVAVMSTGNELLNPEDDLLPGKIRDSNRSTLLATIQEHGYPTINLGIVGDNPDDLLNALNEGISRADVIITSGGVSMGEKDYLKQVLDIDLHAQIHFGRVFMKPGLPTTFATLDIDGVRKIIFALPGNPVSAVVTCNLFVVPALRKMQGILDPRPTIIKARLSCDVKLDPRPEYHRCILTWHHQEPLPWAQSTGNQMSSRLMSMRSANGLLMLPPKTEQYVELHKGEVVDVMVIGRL

Turning to gephyrin (from UniProt Q9NQX3), the dissociation constant (Kd) is 5.3 µM.

The Kd is a measure of binding affinity in units of concentration.
